Measured values published in US9365620B2, “Methods for treating pain” (NoNO NC., priority 2008, dated 2016).

Legend:
N-type calcium channels = N-type calcium channels (Mus musculus, UniProt O55017); assay type: cell-based, Swiss mice
IL-8RB = target: T1, IL-8RB (Homo sapiens, UniProt P25025); experiment: Competitive binding assay, IL-8/IL-8RB; conditions: peptide at 10 μM
T1 sequence (P25025 1-360): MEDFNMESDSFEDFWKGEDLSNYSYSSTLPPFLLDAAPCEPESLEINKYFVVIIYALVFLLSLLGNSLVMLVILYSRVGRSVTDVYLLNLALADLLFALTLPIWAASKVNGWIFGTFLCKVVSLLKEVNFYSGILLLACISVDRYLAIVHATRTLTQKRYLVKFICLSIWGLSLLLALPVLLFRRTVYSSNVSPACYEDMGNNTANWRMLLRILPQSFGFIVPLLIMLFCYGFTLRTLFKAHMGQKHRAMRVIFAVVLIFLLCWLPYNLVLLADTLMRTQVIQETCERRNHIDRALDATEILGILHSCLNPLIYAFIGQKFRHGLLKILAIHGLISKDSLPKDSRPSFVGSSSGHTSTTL

Sequence	Ca^2+ current shown as a percentage (N-type calcium channels)	inhibition of N-type calcium channel activity (N-type calcium channels)	inhibition of IL-8/IL-8RB (IL-8RB) [%]	frequency (use) dependence of block of Ca^2+ currents (N-type calcium channels)	voltage dependence of inhibition of Ca^2+ current (N-type calcium channels)
FGRKKRRQRRRKLSSIESDV (synthetic 1993 peptide F-Tat-NR2B9c) [Peptide 1993, variant in which the Y residue at position 1 of Tat-NR2B9c was mutated to F]	91+/−1.6%	no significant inhibition	–	–	–
YGRKKRRQRRRKLSSIESDV [Tat-NR2B9c] (Synthetic peptide Tat-NR2B9c) [chimeric peptide of a standard tat peptide and …]	68+/−1.7%	–	80	not frequency dependent	voltage-independent manner
